This series in a line: yeast display, Sf9 membrane polyspecificity reagent, FACS + sequencing; frameworks hold sequencing errors. The essentials: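 Galactose induction of a Saccharomyces cerevisiae BJ5465 synthetic nanobody display library ran 36–48 hours. The cells were then stained for 1 hour at 4 °C with 10% biotinylated, detergent-solubilized Sf9 membrane reagent, pulled down on streptavidin microbeads and FACS-sorted into low and high (top ~1%) gates on expression and reagent-binding fluorescence. Labels for polyreactivity follow the gate of origin.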
“QVQLVESGGGLVQAGGSIRLSCAASGFTFTRYTMGWYRQAPGKERELVARITRSGGSTYYADSVKGRFTISRDNAKNTVYLQMNSLKPEDTAVYDCAAGYVVATRYDYWGQGTQVTLSS”: the “polyreactivity (PSR sort gate)” value is recorded as “high polyreactivity”.

For “QVQLVESGGGLVQAGGSIRLSCAASGRIFRYYHMGWYRQAPGKERELVARISSTGRTYADSVKGRFTISRDNAKNSVYLQMYSLKPEDTAVYFCAALFHTRGHSKYDYWGQGTQVTVSS”, the “polyreactivity (PSR sort gate)” value is “high polyreactivity”. With “QVQLVESGGGLVQAGGSIRLSCAASGRISAPNAMGWYRQAAVKERELVAAISSGGRTNYADSVKGRFTISRDNEKNTVYLQMNSLKPEDTAVYYCAAYYYNDRMYYWGQGNQVTVSS” the entry was “high polyreactivity”. In the case of “QVQLVESGGGLVQAGGSIRLSCAASGRTAKRYAMGWYRQAPGKERELVAAISRGGGSTYYADSVKGRFTISRDNAKNTVYLQMNSLKPEDTAVYYCAADLNSYTRYDYWGQGTQVTVSS”, the “polyreactivity (PSR sort gate)” value is on record as “high polyreactivity”. Next, “QVQLVESGGGLVQAGGSIRLSCAASGRTFGDYAMGWYRQAPGKERELVAAISSSGGRTYYADSVKGRFTISRDNAKNTVYLQMNSLKPEDTAVYYCAAQSKYYQYYSWGQGTQVTVSS”: “high polyreactivity”; “QVQLVESGGGLVQAGGSIRLSCAASGRTFVPYVMGWYIQAPGKERELVATINWSGGSTYYADSVKGRFSISRDNAKNTVYLQMNSLKPEDTADYYCDARYYSDWFYYLFRYDYWGQGTQVTVSS”: “low polyreactivity”.

As to “QVQLVESGGGLVQAGGSIRLSCAASGSIFSWYAMGWYSQAPGKERELVAAITSDGGTNYADSVKGRFTISRDNAMNTVYLQMNTLKPEDTAVYYCAADYWYSWRRSHYAHRYGYWGQGTQVTVSS”, the “polyreactivity (PSR sort gate)” value is on record as “low polyreactivity”. With “QVQLVESGGGLVQAGGSIRLSCAASGSIVVSYAMGWYRQAPGKERELVAAITVSGGSTYYADSVKGRFTISRDNAKNTVYLQMNSLKPEDTAVYYCAADSWDDWVVEFYYWGQGTQVNVSS” the entry was “low polyreactivity”; with “QVQLVESGGGLVQAGGSIRLSCAASGSTFANYAMGWYRQAPGKERELVAAISWSGSYTYYADSVKGSFTISRDNAKNTVYLQMNSLKPEDTAVYYCAADYDTPTWEYYYWGQGTQVTVSS”, “low polyreactivity”.

With “QVQLVESGGGLVQAGGSIRLSCAASGSTFWPYAMGWYRQAPGKERELVAAITTSGGITYYADSVKGRFTISRDKAKITVYLQMNSVKPEDTAVYYCAADLSYHGYGYWGQGTQVTVSS”, the “polyreactivity (PSR sort gate)” value is reported as “low polyreactivity”.

Turning to “QVQLVESGGGLVQAGGSIRLSCAASGSTFYIYAMGWYRQAPGQERELVATISWSGGSTYYADSVKGRFTISRDNAKNTVYLQMNSLKPEDTAVYYCAVRPGFGRSLWYGYWGQGTQVTVSS”, the “polyreactivity (PSR sort gate)” value is given as “high polyreactivity”. Turning to “QVQLVESGGGLVQAGGSIRLSCAASGSTLQGNAMGWYRQAPGKERELDAAISRSGGSTYADSVKGRFTISRDNAKNTVYLLMNSLKPEDTAVYYCAAYSGVGYLWFVYWGQGTQVTVSS”, the “polyreactivity (PSR sort gate)” value was “low polyreactivity”. With “QVQLVESGGGLVQAGGSIRLSCAASRFTFGPYAMGWYRQAHVKERELVAAITIRGGSPYADSVKGRFTISRDNAKNTVYLQMNSLKPEDTAVYYCATVRALEYNYWGQGTQVTVSS” the entry was “low polyreactivity”. “QVQLVESGGGLVQAGGSIRLSCAASVSTFFVYTMGWYRQATGKGMELVAAISGSGGSTAYADSVKGRFTISRDNAKNTVYLQLNSLKPEDTAVYYCAARRHVYLRGSTFEFNYWGQGTQVTVSS”: the “polyreactivity (PSR sort gate)” value is “high polyreactivity”. “QVQLVESGGGLVQAGGSIRLTCAASGRIFYGNAMGCYRQAPGKERELVAAISSGTSTNYADSVKGRFTISRDNAKTTVYLQMNSLKPEDTAVYYCAAGSYSRYLYSLYFDFDYWGQGTQVTVSS”: the “polyreactivity (PSR sort gate)” value is on record as “low polyreactivity”. Next, “QVQLVESGGGLVQAGGSIRLTCAASGSIFYHYAMGWYRQAPAKERELVADITQSGGTTDYADSVKGRFTISRDNAKNTVYLQMNSLKTEDTAVYYCAADGDTTSPTYYIFWYGEFDYCGQGTQVTVSS”: “low polyreactivity”. With “QVQLVESGGGLVQAGGSIRLTSAASGRTFVTHPMGWYRQAPGKDRELVAAISRSGSSTYYADSVKGRFTISRDNAKNSVYLQMNSLKAADTAVYYFARVRSRATEVVEYDYWGQGTQVTVSS” the entry was “high polyreactivity”; with “QVQLVESGGGLVQAGGSLCLSCAASGIFVYNAMGWYRPAPGKEREFVAAINKSGASTFYADSVKGRFTISRDTAKNTVYLQMNSLKPEDTAVYYCRERDYWGQGTQVTVSS”, “low polyreactivity”; with “QVQLVESGGGLVQAGGSLGLSCAASGIIFQANAMGWYRQAPGKERELVAGISRGSSTNYADSVKGRFTISRDNEKNTVYLQMNILKPEDTAVYYCASDRGYGRISRNYYWGQGTQVTVSS”, “low polyreactivity”. As for “QVQLVESGGGLVQAGGSLGLSCAASGLIFRKYAMGWYRQAPGKERELVATINRSGGSTYYADSVKGRFTISRDNAKNTVYLQMNSLKPEATAVYYCATDRLSYGYKPGYTFYYWEQGTQVTVSS”, the “polyreactivity (PSR sort gate)” value was “high polyreactivity”.

With “QVQLVESGGGLVQAGGSLGLSCAASGYSLGSYAMGWYRQAPGKERELVAAITSSGGSTYYADSVKGRFTSSRDYAKNTDYLQMNSLKPEDTAVYYCAAERGYHGGGSGLYDYWGQGTQVTVSS”, the “polyreactivity (PSR sort gate)” value is reported as “low polyreactivity”. Next, “QVQLVESGGGLVQAGGSLGLSSAASGRTFGVYAMGWYRQAPGKERELVAGIRWRGGSTYYADSVKGRFTISRDNAKNTVYLQMNSLKPEDTAVYYCAADVYLVKYDYWGQGTQVTVSS”: “low polyreactivity”. For “QVQLVESGGGLVQAGGSLGLSWAASGSIIRYNALGWYRQAPGKERELVAAITKGAGSTYYADSEKGRFTISRDNAKNTVYLHMNSLKPEDTEVYYCNKARGSGHTYYSWGQGTQVTVSS”, the “polyreactivity (PSR sort gate)” value is recorded as “high polyreactivity”.

With “QVQLVESGGGLVQAGGSLLISCAASGITFDGYAMGWYRHAPGKESELVARITATGFRTYYADSVKGRFTISRDYAKNTVYLKMNSLKPEDTAVYYCPRTTSCVQNVRKYYYWGQGTQVTVSS”, the “polyreactivity (PSR sort gate)” value is “high polyreactivity”. Consider “QVQLVESGGGLVQAGGSLLLSCAASGFTFGSYAMGLYRQAPGKERELVARITRGGNTYYADSVKGRFTISRDNAKNTVYLQMNSLKPVDTAVYYCNAYGRVSPLYQPYGNDAQGYYWGQGTQVTVSS”, for which the “polyreactivity (PSR sort gate)” value is “high polyreactivity”. For the sequence “QVQLVESGGGLVQAGGSLLLSCAASGGTFHYNAMGWYIQAPGKERELVAAITESGGRTYYADSVKGRFTISRDNAKNTVYLQMNSLKPEDTAVYYCNADQDSDAADRSAYWGQGSQVTVSS”, the “polyreactivity (PSR sort gate)” value was “low polyreactivity”.

Turning to “QVQLVESGGGLVQAGGSLLLSCAASGLIFYWYAMGWYRQAPGKERELVAAISGGDRTKYADSVKGRFTISRDNAKNTVYLQMISLKPEDSAVYYCATAPYDTSRRYGPYEYWGQRTQVTVSS”, the “polyreactivity (PSR sort gate)” value is “low polyreactivity”.

Turning to “QVQLVESGGGLVQAGGSLLLSCAASGNIIYSNALGWYRQGPGKERELVAAISSGGITYYADSVKGRFTISRDNAKNTVYLQMNSLKPEDTAVYYCAAYIRNWRATYEYWGQGTQVTVSS”, the “polyreactivity (PSR sort gate)” value was “high polyreactivity”.

Take “QVQLVESGGGLVQAGGSLLLSCAASGRIFDRNAIGWYRQAPGKERELVAAINSVGTTYYADSVKGRFTISRDNAKNTVYLQMNSLKPEDTAVYYCAARSAYRRGYWGQGTQVTLSS”: the “polyreactivity (PSR sort gate)” value is reported as “high polyreactivity”. With “QVQLVESGGGLVQAGGSLLLSCAASGRIFFTNAMGWYRQAPRKERELVAAISKSGARTYYADSVKGRFTISRDKAKNTVYLQMNSLKPEDTAVYYCATDYAFPQYDDWGQGTQVTVSS” the entry was “high polyreactivity”.
